Results published in paper PMC8177707.
Read-outs that look alike come from different tables or passages of the source.

How the values were obtained:
Assay in all cases: cryo-EM structure
[1] = biological target: full-length wild-type calcium-sensing receptor from Gallus gallus (ggCaSR) (Gallus gallus)
[2] = biological target: full-length wild-type calcium-sensing receptor from Gallus gallus (ggCaSR) (Gallus gallus); remark: listed apart in the source
[3] = biological target: full-length wild-type calcium-sensing receptor from Gallus gallus (ggCaSR) (Gallus gallus); remark: listed apart in the source
[4] = biological target: full-length wild-type calcium-sensing receptor from Gallus gallus (ggCaSR) (Gallus gallus); remark: listed apart in the source

Measured: stoichiometry N

full-length wild-type calcium-sensing receptor from Gallus gallus (ggCaSR)
2: [1] | [2] | [3] | [4]
